Article PMC9389042, “Atypical IκB Bcl3 enhances the generation of the NF-κB p52 homodimer” (Frontiers in Cell and Developmental Biology, 2022)

T1: p52 (1-341) fused to a BiFC fragment (human, UniProt Q00653 1-341)
T1 construct: NF-kappaB p52 (processed product of NF-kappaB2/p100), rel homology region, residues 1-341; Three constructs that differ only in the fluorescent-protein fragment are written as one molecule; The methods give limits for p52-VN and p52-CC only; also called p52-VN; p52-CC; not shown: BiFC fragment behind a (GGGGS)2 linker (Venus 1-172 in p52-VN; Cerulean 155-238 in p52-CC; N-terminal fragment of …)
T1 sequence (looked up): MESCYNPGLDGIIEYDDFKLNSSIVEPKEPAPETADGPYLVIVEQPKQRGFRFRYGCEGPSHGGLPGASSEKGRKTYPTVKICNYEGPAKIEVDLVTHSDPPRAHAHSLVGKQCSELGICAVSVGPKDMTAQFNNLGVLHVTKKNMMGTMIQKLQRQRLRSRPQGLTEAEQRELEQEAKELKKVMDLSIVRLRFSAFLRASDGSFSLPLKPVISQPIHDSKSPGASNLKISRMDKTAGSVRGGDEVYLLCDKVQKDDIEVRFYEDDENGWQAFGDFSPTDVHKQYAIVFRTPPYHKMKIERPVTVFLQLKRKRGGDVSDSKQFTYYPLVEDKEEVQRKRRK

T2: Recombinant non-tagged human p50 (1-435) (human, UniProt P19838 1-435)
T2 chain: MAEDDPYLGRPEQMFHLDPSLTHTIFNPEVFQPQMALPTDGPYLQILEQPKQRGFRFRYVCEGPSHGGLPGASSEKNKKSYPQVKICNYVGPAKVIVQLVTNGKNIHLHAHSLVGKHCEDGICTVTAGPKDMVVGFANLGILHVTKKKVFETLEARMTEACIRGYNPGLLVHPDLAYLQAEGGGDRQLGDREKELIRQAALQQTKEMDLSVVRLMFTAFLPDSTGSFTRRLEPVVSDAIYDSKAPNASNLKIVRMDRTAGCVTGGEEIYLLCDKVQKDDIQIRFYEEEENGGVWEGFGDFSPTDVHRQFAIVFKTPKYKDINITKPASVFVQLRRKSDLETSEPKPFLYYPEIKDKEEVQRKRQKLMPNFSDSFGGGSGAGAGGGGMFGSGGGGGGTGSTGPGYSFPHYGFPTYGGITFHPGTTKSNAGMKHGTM

T3: Recombinant non-tagged human p52 (1-398) (human, UniProt Q00653 1-398)
T3 chain: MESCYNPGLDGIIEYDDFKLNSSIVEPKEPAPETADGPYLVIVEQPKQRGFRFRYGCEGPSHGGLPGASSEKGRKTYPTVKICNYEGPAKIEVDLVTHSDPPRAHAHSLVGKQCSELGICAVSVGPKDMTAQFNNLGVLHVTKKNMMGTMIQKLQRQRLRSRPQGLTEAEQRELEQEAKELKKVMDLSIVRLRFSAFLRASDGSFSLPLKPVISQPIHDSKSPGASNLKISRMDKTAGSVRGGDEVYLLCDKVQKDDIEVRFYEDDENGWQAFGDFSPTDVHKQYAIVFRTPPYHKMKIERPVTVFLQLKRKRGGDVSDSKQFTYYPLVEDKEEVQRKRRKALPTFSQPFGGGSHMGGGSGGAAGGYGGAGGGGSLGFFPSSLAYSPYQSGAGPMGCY


Tests used:
[1] = molecular target: T1, p52 (1-341) fused to a BiFC fragment; test: split reporter (BiFC, NanoBiT); multicolor BiFC: three BiFC constructs (VN, CC, CN) co-expressed in HEK 293T cells so that two dimers compete, with or without co-expressed Bcl3 or RelB; cells fixed with methanol 48 h after transfection; Venus and Cerulean intensity as percent of the two-construct reference; conditions: partners not purified
[2] = molecular target: T2, Recombinant non-tagged human p50 (1-435); test: BLI; p50:p50 homodimer
[3] = molecular target: T3, Recombinant non-tagged human p52 (1-398); test: BLI; p52:p52 homodimer
[4] = molecular target: T2, Recombinant non-tagged human p50 (1-435); test: BLI; p50:p50 homodimer
[5] = molecular target: T3, Recombinant non-tagged human p52 (1-398); test: BLI; p52:p52 homodimer
[6] = molecular target: T2, Recombinant non-tagged human p50 (1-435); test: BLI; p50:p50 homodimer; duplicate experiment
[7] = molecular target: T3, Recombinant non-tagged human p52 (1-398); test: BLI; p52:p52 homodimer; duplicate experiment
[8] = molecular target: T2, Recombinant non-tagged human p50 (1-435); test: BLI; p50:p50 homodimer; duplicate experiment
[9] = molecular target: T3, Recombinant non-tagged human p52 (1-398); test: BLI; p52:p52 homodimer; duplicate experiment

| fold more stable than the p52:p52 homodimer (BiFC fluorescence, without Bcl3) [1] [fold] | koff [2] [s⁻¹] | koff [3] [s⁻¹] | Kd [4] [nM] | Kd [5] [nM] | koff [6] [s⁻¹] | koff [7] [s⁻¹] | Kd [8] [nM] | Kd [9] [nM] | Binder |
| --- | --- | --- | --- | --- | --- | --- | --- | --- | --- |
| ~20 | – | – | – | – | – | – | – | – | RelB (1-400) fused to a BiFC fragment (domain or fragment, UniProt Q04863 1-400, looked up, RelB, rel homology region, residues 1-400; Three constructs that differ only in the fluorescent-protein fragment are written as one molecule; The methods give limits for RelB-CN only; also called RelB-CN; RelB-VN; not shown: BiFC fragment behind a (GGGGS)2 linker (Cerulean 1-172 in RelB-CN; N-terminal fragment of Venus in RelB-VN; C-terminal fragment of Cerulean in RelB-CC; one for each …)) MPSRRAARESAPELGALGSSDLSSLSLTVSRTTDELEIIDEYIKENGFGLDGTQLSEMPRLVPRGPASLSSVTLGPAAPPPPATPSWSCTLGRLVSPGPCPRPYLVITEQPKQRGMRFRYECEGRSAGSILGESSTEASKTLPAIELRDCGGLREVEVTACLVWKDWPHRVHPHSLVGKDCTDGVCRVRLRPHVSPRHSFNNLGIQCVRKKEIEAAIERKIQLGIDPYNAGSLKNHQEVDMNVVRICFQASYRDQQGHLHRMDPILSEPVYDKKSTNTSELRICRINKESGPCTGGEELYLLCDKVQKEDISVVFSTASWEGRADFSQADVHRQIAIVFKTPPYEDLEISEPVTVNVFLQRLTDGVCSEPLPFTYLPRDHDSYGVDKKRKRGLPDVLGEL |
| – | 0.000354 | 0.000393 | 6.87 | 3.12 | 0.00033 | 0.000323 | 6.56 | 2.4 | His-Bcl3(1-446) (natural protein) MDEGPVDLRTRPKAAGLPGAALPLRKRPLRAPSPEPAAPRGAAGLVVPLDPLRGGCDLPAVPGPPHGLARPEALYYPGALLPLYPTRAMGSPFPLVNLPTPLYPMMCPMEHPLSADIAMATRADEDGDTPLHIAVVQGNLPAVHRLVNLFQQGGRELDIYNNLRQTPLHLAVITTLPSVVRLLVTAGASPMALDRHGQTAAHLACEHRSPTCLRALLDSAAPGTLDLEARNYDGLTALHVAVNTECQETVQLLLERGADIDAVDIKSGRSPLIHAVENNSLSMVQLLLQHGANVNAQMYSGSSALHSASGRGLLPLVRTLVRSGADSSLKNCHNDTPLMVARSRRVIDILRGKATRPASTSQPDPSPDRSANTSPESSSRLSSNGLLSASPSSSPSQSPPRDPPGFPMAPPNFFLPSPSPPAFLPFAGVLRGPGRPVPPSPAPGGS |
